Key:
[1] = system: Orobanche aegyptiaca seeds; assay: Petri dish assay: effect of SLP on O. aegyptiaca seed germination and radicle elongation; format: in vivo
Experimental: The effect of the direct application of the lytic toxin Sarcotoxin IA (SLP) to seeds of the parasitic plant O. aegyptiaca was assayed. SLP was obtained by production in S. cerevisiae, and applied to seeds during both preconditioning and germination stages as follows: Yeast strain Y426-MATa yeast cells transformed with a yeast shuttle vector-pFL61 to express the sarcotoxin IA were cultured in -URA liquid media at 30° C. for 72 h as described in Aly et al. (1999). The cultures were then centrifuged for 5 min at 4000 g and the supernatant collected for SLP assay. Quantitative evaluation of the SLP concentration present in the growth media was obtained by Western blot analysis. The effect of SLP on O. aegyptiaca seeds was determined in a Petri dish assay. Parasite seeds were surface-sterilized, dispersed on Whatman GF/A glass-fiber (0.7 cm diam.), covered with the same filter, and placed in a Petri dish. […] After incubation in dark at 26° C. for 7 days, seeds were rated for radicles damage.

[2] = system: several bacteria, including plant pathogenic bacteria; details: SLP secreted from yeast cells (Aly et al, 1999); cited from earlier work
[3] = SLP 10 μM applied at germination (three days after GR24)
[4] = SLP 20 μM applied at germination
[5] = SLP 20 μM applied at preconditioning
[6] = SLP 30 μM applied at germination
[7] = SLP 30 μM applied at preconditioning
[8] = SLP 40 μM applied at germination
[9] = SLP 40 μM applied at preconditioning

B1: sarcotoxin IA (protein, listed as Sarcophaga peregrina)
chain: MNFQNIFIFVALILAVFAGQSQAGWLKKIGKKIERVGQHTRDATIQGLGIAQQAANVAATARG
- Gemination (% of control) [1, 3]: 80 ± 6 % of control
- Radicle length (% of control) [1, 3]: 65 ± 5 % of control
- Radicle length (% of control) ([1]; SLP 10 μM applied at preconditioning (mixed with GR24)): 65 ± 6 % of control
- Gemination (% of control) ([1]; SLP 10 μM applied at preconditioning (mixed with GR24), 7 days, 26° C., dark): 76 ± 3 % of control
- Gemination (% of control) [1, 4]: 76 ± 8 % of control
- Radicle length (% of control) [1, 4]: 47 ± 3 % of control
- Gemination (% of control) [1, 5]: 69 ± 6 % of control
- Radicle length (% of control) [1, 5]: 52 ± 2 % of control
- Gemination (% of control) [1, 6]: 43 ± 7 % of control
- Radicle length (% of control) [1, 6]: 33 ± 4 % of control
- Gemination (% of control) [1, 7]: 6 ± 1 % of control
- Radicle length (% of control) [1, 7]: 12 ± 8 % of control
- Gemination (% of control) [1, 8]: 36 ± 2 % of control
- Radicle length (% of control) [1, 8]: 4 ± 1 % of control
- Gemination (% of control) [1, 9]: 0 % of control
- Radicle length (% of control) [1, 9]: 0 % of control
- radicle elongation and seed germination of the parasite ([1]; presence of SLP, in words): significantly reduced
- cytotoxic effect against bacteria [2]: potent cytotoxic effect
